In US7993884B2, “Beta-xylosidase for conversion of plant cell wall carbohydrates to simple sugars” (The United States of America as represented by the …, priority 2006, dated 2011):
Values joined by “and” are separate entries in the source; they are usually repeats but may differ in a detail not shown here. Equal values may be shown once. Read-outs that look alike come from different tables or passages of the source.

Assays:
[1] = substrate: O=[N+]([O-])c1ccc(O[C@@H]2O[C@@H](CO)[C@H](O)[C@H]2O)cc1; test: purified protein, by the assay type; format: biochemical, Selenomonas ruminantium GA192; conditions: other: pH 5.3, 25° C
[2] = substrate: O=[N+]([O-])c1ccc(O[C@@H]2OC[C@@H](O)[C@H](O)[C@H]2O)cc1; test: purified protein, by the assay type; format: biochemical, Selenomonas ruminantium GA192; conditions: other: untreated control SXA, pH 7.0, 25° C
[3] = substrate: O=[N+]([O-])c1ccc(O[C@@H]2OC[C@@H](O)[C@H](O)[C@H]2O)cc1; test: purified protein, by the assay type; format: biochemical, Selenomonas ruminantium GA192; conditions: other: pH 5.3, 25° C
Text: Determination of Inhibition Constants

[4] = substrate: O=[N+]([O-])c1ccc(O[C@@H]2O[C@@H](CO)[C@H](O)[C@H]2O)cc1; test: purified protein, by the assay type
Protocol: Kinetics with 4NP Substrates
(§1) Two methods were employed for determining initial rates. […] Initial rates were calculated from fitting the absorbance readings versus time to a line (minimum of 4 points per reaction progression) and by using an extinction coefficient of 17.4 mM^−1 cm^−1. In Method B (continuous monitoring), temperature-equilibrated reactions (1 mL) were monitored at 380 nm (for pH values below 6) or 400 nm (for pH values of 6 and above). Reactions were generally monitored 0.3 min for initial rate determinations. Delta extinction coefficients (product-substrate) used for molar conversion were determined by subtracting the absorbance of substrate (at pH 5 so even very minor contaminating 4NP would not contribute) from the absorbance of 4NP for each reaction condition. […] The concentration of 4NP substrates was determined by incubating the substrate with excess enzyme until an end point was reached, adding an aliquot (0.01 to 0.1 mL) to 0.1 M NaOH, recording the absorbance at 400 nm and using the extinction coefficient of 18.3 cm^−1mM^−1. Unless indicated otherwise, for both Methods A and B, reactions were initiated by adding a small aliquot of enzyme (generally 7 μl of enzyme diluted into 10 mM sodium phosphate, pH 7.0, and incubated on wet ice or at ˜25° C.) to the 1-mL, temperature-equilibrated (25° C.) reaction mixtures. For pH studies, buffers of constant ionic strength (I=0.3 M), adjusted with NaCl, were used as indicated: 100 mM succinate-NaOH (pH 4.3-6), 100 mM sodium phosphate (pH 6-8), 30 mM sodium pyrophosphate (pH 8-9), glycine-NaOH (pH 9) and glycylglycine-NaOH (pH 9).

[5] = substrate: O=[N+]([O-])c1ccc(O[C@@H]2OC[C@@H](O[C@@H]3OC[C@@H](O)[C@H](O)[C@H]3O)[C@H](O)[C@H]2O)cc1; test: purified protein, by the assay type; conditions: other: 100 mM sodium phosphate, pH 7.0, 25° C, first step (4NPX2 to 4NPX+D-xylose), not well determined, pH 7.0
Protocol: (§2) Samples (25 μL) were injected onto the column equilibrated with 0.1 M NaOH and developed with a 15-min linear gradient (0.1 M NaOH to 15 mM sodium acetate) at ˜25° C. and a flow rate of 1 mL min^−1.
(§3) Before (time=0 min) and after (time=1-6 min) initiating reactions with enzyme (7 μL), samples (0.05-0.1 mL) were removed and quenched with an equal volume of 0.5 M acetic acid and frozen. Following lyophilization, samples were dissolved in H2O and analyzed by HPLC. […] Results from two replicate reactions were combined to provide data points for the progress curves.
(§4) Before and after addition of enzyme (7 μL), 25-μl aliquots of the reaction mixtures were directly injected onto the HPLC column for quantification of product L-arabinose.
(§5) Quenched samples were analyzed by HPLC for D-xylose. Initial rates were determined from linear regressions of [D-xylose] produced versus reaction time. […] Four 1-mL replicate reactions were conducted to supply data points for the progress curves. Two parallel reactions were conducted, under the same conditions with the same reaction components, the absorbance at 400 nm was continuously monitored (20 min) for 4NP production, and the absorbance values were converted to mM 4NP concentrations by using a delta extinction coefficient (product-substrate) of 8.22 mM^−1 cm^−1.

[6] = substrate: OC1OC[C@@H](O[C@@H]2OC[C@@H](O[C@@H]3OC[C@@H](O[C@@H]4OC[C@@H](O[C@@H]5OC[C@@H](O[C@@H]6OC[C@@H](O)[C@H](O)[C@H]6O)[C@H](O)[C@H]5O)[C@H](O)[C@H]4O)[C@H](O)[C@H]3O)[C@H](O)[C@H]2O)[C@H](O)[C@H]1O; test: purified protein, by the assay type; conditions: for Km: other: 100 mM succinate-NaOH, pH 5.3, 25° C
[7] = substrate: O=[N+]([O-])c1ccc(O[C@@H]2OC[C@@H](O)[C@H](O)[C@H]2O)cc1; test: purified protein, by the assay type; conditions: […]
Protocol: Kinetics with 4NP Substrates
as §1

[8] = substrate: OC1OC[C@@H](O[C@@H]2OC[C@@H](O[C@@H]3OC[C@@H](O[C@@H]4OC[C@@H](O)[C@H](O)[C@H]4O)[C@H](O)[C@H]3O)[C@H](O)[C@H]2O)[C@H](O)[C@H]1O; test: purified protein, by the assay type; conditions: other: 100 mM succinate-NaOH, pH 5.3, 25° C
[9] = substrate: OC1OC[C@@H](O[C@@H]2OC[C@@H](O[C@@H]3OC[C@@H](O[C@@H]4OC[C@@H](O[C@@H]5OC[C@@H](O)[C@H](O)[C@H]5O)[C@H](O)[C@H]4O)[C@H](O)[C@H]3O)[C@H](O)[C@H]2O)[C@H](O)[C@H]1O; test: purified protein, by the assay type; conditions: other: 100 mM succinate-NaOH, pH 5.3, 25° C
[10] = substrate: OC1OC[C@@H](O[C@@H]2OC[C@@H](O[C@@H]3OC[C@@H](O)[C@H](O)[C@H]3O)[C@H](O)[C@H]2O)[C@H](O)[C@H]1O; test: purified protein, by the assay type; conditions: for Km: other: 100 mM succinate-NaOH, pH 5.3, 25° C
[11] = substrate: OC[C@@H]1O[C@@H](OC[C@@H]2OC(O)[C@H](O)[C@H]2O)[C@H](O)[C@H]1O; test: purified protein, by the assay type; conditions: other: 100 mM succinate-NaOH, pH 5.3, 25° C, pH 5.3
Protocol: as §2, §3, §4, §5

[12] = substrate: OC1OC[C@@H](O[C@@H]2OC[C@@H](O)[C@H](O)[C@H]2O)[C@H](O)[C@H]1O; test: purified protein, by the assay type; conditions: other: 100 mM succinate-NaOH, pH 5.3, 25° C
SXA [13] = target: T1, SXA (Selenomonas ruminantium, UniProt O52575); test: pH stability of SXA and protection from low pH inactivation at pH 4.0 by monosaccharides
Protocol: Buffers of constant ionic strength (I=0.3 M), adjusted with NaCl, were used as indicated: 100 mM succinate-NaOH (pH 3.5-6), 100 mM sodium phosphate (pH 6-8), 30 mM sodium pyrophosphate (pH 8-9), and 100 mM glycine-NaOH (pH 9-10). […] Initial rates were determined by monitoring reactions continuously at 400 nM for 0.3 min. […] Relative activity remaining data were fitted to equation 3, which describes a first order decay: A is the relative activity remaining at varied times of preincubation, A0 is the relative activity remaining at time zero of the preincubation, kobs is the first order rate constant, and t is the time of preincubation. Apparent affinities for D-xylose and D-glucose were determined by fitting kobs values from the monosaccharide protection studies to equation 4 where kobs is the observed first order rate constant for the decay, k0 is the first order rate constant in the absence of ligand (e.g., D-xylose), I is the ligand concentration in the preincubation mixture, and Ki is the dissociation constant of ligand from the enzyme-ligand complex.

[14] = Isoelectric focusing of native SXA; format: physicochemical; conditions: IEF pH 3-10 gel
SXA [15] = target: T1, SXA
Protocol: Initial rates were determined by monitoring reactions continuously at 400 nM for 0.3 min. […] Relative activity remaining data were fitted to equation 3, which describes a first order decay: A is the relative activity remaining at varied times of preincubation, A0 is the relative activity remaining at time zero of the preincubation, kobs is the first order rate constant, and t is the time of preincubation. Apparent affinities for D-xylose and D-glucose were determined by fitting kobs values from the monosaccharide protection studies to equation 4 where kobs is the observed first order rate constant for the decay, k0 is the first order rate constant in the absence of ligand (e.g., D-xylose), I is the ligand concentration in the preincubation mixture, and Ki is the dissociation constant of ligand from the enzyme-ligand complex.
Ligand protection studies contained varied concentrations of D-xylose or D-glucose in the pH 5.3 preincubation buffer at 55° C.

[16] = D-xylose α:β ratio 1:2.5 experiment
[17] = D-xylose α:β ratio 6:1 experiment
[18] = 4NP inhibition experiment, HPLC
[19] = other: 100 mM MES-NaOH, pH 6.00, 25° C, Method B, 50% sucrose, η/ηo 6.85, pH 6.0
[20] = other: 100 mM MES-NaOH, pH 6.00, 25° C, Method B, η/ηo 1.00, pH 6.0
[21] = other: pH 5.3, 25° C (Example 1), approximate, pH 5.3
[22] = other: 100 mM sodium phosphate, pH 7.0, 25° C, Method B, second step (4NPX to 4NP+D-xylose), pH 7.0

B1: Selenomonas ruminantium GA192 β-D-xylosidase (SXA), wild type, SEQ ID NO: 2 (Pseudoselenomonas ruminantium) (protein)
chain: MNIQNPVLKGFNPDPSIVRAGDDYYIATSTFEWFPGVQIHHSKDLVHWHLVAHPLSTTEFLDMKGNPDSGGIWAPDLSYADGKFWLIYTDVKVVDGMWKDCHNYLTTAEDIKGPWSKPILLNGAGFDASLFHDPSGKKYLVNMYWDQRVYHHNFYGIALQEYSVAEEKLIGKPEIIYKGTDIAYTEGPHLYYINDMYYLMTAEGGTTYQHSETIARSKTIHGPYEIQPDYPLLSAWKEVHNPLQKCGHASLVETQNGQWYLAHLTGRPLPAPAGFPSREREQHAFCPLGRETAIQKIEWQDGWPVVVGGQQGSLEVEAPDLPQQEWAPTYEERDDFDKDTLNINFQTLRIPFSEHLGSLTARPGFLRLYGRESLQSKFTQAHIARRWQSFNFDAGTSVEFSPNSFQQMAGLTCYYNTENWSSIHVTWNEEKGRIIDLVTADNGTFSMPLAGAEIPIPDEVKTVHFKVSVRGRIYQYAYSFDGETFHTLPIELPSWKLSDDYVRGGGFFTGAFVGINAIDITGTALPADFDYFTYKELD
For B1, the Km [1, 16] was 900 ± 13 µM, the kcat [1, 16] was 2.79 ± 0.01 s⁻¹ and the Km [1, 17] was 880 ± 130 µM. The kcat [1, 17] was 2.78 ± 0.01 s⁻¹, the Km [2] was 380 ± 5 µM and the kcat [2] was 12.2 ± 0.05 s⁻¹. For the same molecule, the Km [3, 18] was 758 ± 59 µM, the kcat [3, 18] was 26.7 ± 1.1 s⁻¹ and the Km ([3]; D-xylose inhibition experiment) was 716 ± 32 µM. The kcat ([3]; D-xylose inhibition experiment) was 32.1 ± 0.5 s⁻¹, the Km [4, 19] was 754 ± 101 µM and the Km [4, 20] was 745 ± 36 µM. It also gave a Km ([4]; other: 100 mM succinate-NaOH, pH 5.3, 25° C, Method A, no sucrose, pH 5.3) of 810 ± 50 µM, a kcat ([4]; other: pH profile, I=0.3 M, Method B) of 3.25 ± 0.05 s⁻¹ and a Km [5] of 690 ± 430 µM. For the same molecule, the kcat [5] was 50.5 ± 25.7 s⁻¹, the Km [6] was 3120 ± 210 µM and the Km ([6]; pH 5.3) was 2700 ± 500 µM. For the same molecule, the kcat [6, 21] was 100 s⁻¹, the Km [7, 19] was 637 ± 81 µM and the Km [7, 20] was 699 ± 35 µM. The Km [7, 22] was 443 ± 8 µM, the kcat [7, 22] was 16.2 ± 0.09 s⁻¹ and the Km ([7]; other: pH 5.3, 25° C, Method A, 50% sucrose, η/ηo 6.12, pH 5.3) was 690 ± 35 µM. For the same molecule, the Km [8] was 2750 ± 230 µM, the Km ([8]; pH 5.3) was 4000 ± 300 µM and the Km [9] was 2860 ± 380 µM. It also gave a Km ([9]; pH 5.3) of 3700 ± 600 µM, a Km [10] of 2120 ± 100 µM and a Km ([10]; pH 5.3) of 3800 ± 600 µM. It also gave a kcat [10, 21] of 170 s⁻¹, a Km [11] of 1200 ± 100 µM and a Km [12] of 2060 ± 80 µM. It also gave a Km ([12]; pH 5.3) of 4200 ± 500 µM.

B2: SXA: β-D-xylosidase (E.C. 3.2.1.37) of Selenomonas ruminantium GA192, glycoside hydrolase family 43, GenBank AAB97967, SEQ. ID No. 2 (protein)
chain: MNIQNPVLKGFNPDPSIVRAGDDYYIATSTFEWFPGVQIHHSKDLVHWHLVAHPLSTTEFLDMKGNPDSGGIWAPDLSYADGKFWLIYTDVKVVDGMWKDCHNYLTTAEDIKGPWSKPILLNGAGFDASLFHDPSGKKYLVNMYWDQRVYHHNFYGIALQEYSVAEEKLIGKPEIIYKGTDIAYTEGPHLYYINDMYYLMTAEGGTTYQHSETIARSKTIHGPYEIQPDYPLLSAWKEVHNPLQKCGHASLVETQNGQWYLAHLTGRPLPAPAGFPSREREQHAFCPLGRETAIQKIEWQDGWPVVVGGQQGSLEVEAPDLPQQEWAPTYEERDDFDKDTLNINFQTLRIPFSEHLGSLTARPGFLRLYGRESLQSKFTQAHIARRWQSFNFDAGTSVEFSPNSFQQMAGLTCYYNTENWSSIHVTWNEEKGRIIDLVTADNGTFSMPLAGAEIPIPDEVKTVHFKVSVRGRIYQYAYSFDGETFHTLPIELPSWKLSDDYVRGGGFFTGAFVGINAIDITGTALPADFDYFTYKELD
modifications: selenomonas ruminantium
For B2, the “pH below which SXA is unstable” value (SXA [13]) was “below 4.1”, the “kobs, first-order inactivation rate constant of SXA” value (SXA [13]; pH 4.0, 25° C., absence of monosaccharide (0 mM)) was 0.0784 ± 0.0023 min⁻¹ and 0.0518 ± 0.0037 min⁻¹ and the isoelectric point [14] was “approximately 4.4”. The “temperature up to which the enzyme is stable” value (SXA [15]) was “up to 55 °C” and the “kobs, first-order inactivation rate constant of SXA” value (SXA [15]; pH 5.3, 55° C., absence of monosaccharide (0 mM)) was 0.0252 ± 0.0020 min⁻¹ and 0.0256 ± 0.0015 min⁻¹.
